Broadly, the IC50 is the concentration needed to halve the response being measured. Lower therefore signals greater potency.

The target in experiment [1] is HLA-A*0201 (Human). The experiment in a line: competition vs 125I standard peptide, purified HLA.
Experiment [2] concerns the target HLA-A*2401 (human). The experiment in a line: competition with 125I probe peptide, purified HLA class I.
Experiment [3] has as its target HLA-A*2401 (Human).
Experiment [4] concerns the target HLA-A*0201 (Human). The experiment in a line: competition vs 125I probe, purified HLA.
The target in a further experiment is HLA-A*0206 (Human). In words: competition vs 125I probe, purified HLA.
Another experiment concerns the target HLA-A*0203 (Human). In words: competition vs 125I probe, purified HLA.
A further experiment has as its target HLA-A*0202 (Human). In words: competition vs 125I probe, purified HLA.

With EALELKDA (peptide), in the experiment with HLA-A*0201 (Human) [1], the binding affinity ratio (ratio to standard peptide) was -0.0002. Regarding ELNEALEL (peptide), the binding affinity ratio (ratio to standard peptide) with HLA-A*0201 (Human) [1] is -0.0002.

As to PLDGEYFT (peptide), the binding affinity ratio (ratio to standard peptide) in the experiment with HLA-A*0201 (Human) [1] is -0.0002. On to RFEMFREL (p53 position 337) (peptide), for which the binding affinity ratio (standard IC50 / test IC50) with HLA-A*2401 (human) [2] was -0.0004. For the substance TFSDLWKL (p53 position 18) (peptide), the binding affinity ratio (standard IC50 / test IC50) with HLA-A*2401 (human) [2] stood at 0.0016. For the substance p53 peptide HMTEVVRR (position 168), the binding affinity ratio (IC50 of standard peptide/IC50 of test peptide) with HLA-A*0301 (Human) is 0.0046. With “p53 peptide RFEMFREL (position 337, 8 amino acids)”, the binding affinity ratio (IC50 of standard peptide/IC50 of test peptide) with HLA-A*2401 (Human) [3] was -0.0004.

As to “p53 peptide SYGFRLGF (position 106, 8 amino acids)”, in the experiment with HLA-A*2401 (Human) [3], the binding affinity ratio (IC50 of standard peptide/IC50 of test peptide) came to 0.028. For “p53 peptide TFSDLWKL (position 18, 8 amino acids)”, in the experiment with HLA-A*2401 (Human) [3], the binding affinity ratio (IC50 of standard peptide/IC50 of test peptide) turned out to be 0.0016. “p53 peptide TYQGSYGF (position 102, 8 amino acids)”: the binding affinity ratio (IC50 of standard peptide/IC50 of test peptide) with HLA-A*2401 (Human) [3] was determined as 0.11. Regarding “p53 peptide … (position 102, 10 amino acids)”, the binding affinity ratio (IC50 of standard peptide/IC50 of test peptide) in the experiment with HLA-A*2401 (Human) [3] was 0.12. Take “p53 peptide … (position 106, 9 amino acids)”: in the experiment with HLA-A*2401 (Human) [3], the binding affinity ratio (IC50 of standard peptide/IC50 of test peptide) came to 0.02.

On to “p53 peptide … (position 117, 10 amino acids)”, for which the binding affinity ratio (IC50 of standard peptide/IC50 of test peptide) with HLA-A*2401 (Human) [3] turned out to be 0.0001. For “p53 peptide … (position 125, 10 amino acids)”, the binding affinity ratio (IC50 of standard peptide/IC50 of test peptide) with HLA-A*2401 (Human) [3] was 5.1.

With p53.69 AAPPVAPA (peptide), the IC50 with HLA-A*0201 (Human) [4] came to 5 µM. p53.129B7V9 ALNKMFBQV (peptide): the IC50 in the experiment with HLA-A*0206 (Human) amounted to 0.049 µM; in the experiment with HLA-A*0203 (Human), 0.023 µM. With p53.135B1B7 BQLAKTBPV (peptide), the half-inhibitory concentration (IC50) with HLA-A*0202 (Human) worked out at 0.071 µM; with HLA-A*0206 (Human), 0.067 µM; with HLA-A*0203 (Human), 0.015 µM. For the substance p53.135B1L2B7 BLLAKTBPV (peptide), the IC50 with HLA-A*0206 (Human) worked out at 0.064 µM; with HLA-A*0203 (Human), 0.0077 µM; in the experiment with HLA-A*0201 (Human) [4], 0.046 µM.

For the origin of these results see patent publication US20050196403A1.
